We go through two molecules from article PMC5342261, “Boosting of HIV envelope CD4 binding site antibodies with long variable heavy third complementarity determining region in the randomized double blind RV305 HIV-1 vaccine trial” (PLoS Pathogens, 2017).

Assay [1] has as its target AE.A244gp120 (HIV-1). In words: ELISA; blocking ELISA; AE.A244gp120 on the plate; mAbs diluted 3-fold from 100 ug/mL added for 1 h, wash, biotinylated VRC01 or CH31 for 1 h, streptavidin-HRP. As to conditions: both partners purified. Background: An ELISA detects its analyte on a solid surface through an enzyme-linked reagent.
Assay [2] concerns the target AE.A244gp120 (HIV-1). Kind of assay: SPR. To be noted: both partners purified.

B1: VRC01 (antibody, V domains shown)
VH: QVQLVQSGGQMKKPGESMRISCRASGYEFIDCTLNWIRLAPGKRPEWMGWLKPRGGAVNYARPLQGRVTMTRDVYSDTAFLELRSLTVDDTAVYFCTRGKNCDYNWDFEHWGRGTPVIVSS
VL: EIVLTQSPGTLSLSPGETAIISCRTSQYGSLAWYQQRPGQAPRLVIYSGSTRAAGIPDRFSGSRWGPDYNLTISNLESGDFGVYYCQQYEFFGQGTKVQVD
notes: also called CD4 bs bnAb VRC01
Take B1: the binding result in assay [1] is listed as “binds”.

B2: DH576 Unmutated Common Ancestor (UCA) (antibody, V domains shown)
VH: QVQLVESGGGVVQPGRSLRLSCAASGFTFSSYGMHWVRQAPGKGLEWVAVISYDGSNKYYADSVKGRFTISRDNSKNTLYLQMNSLRAEDTAVYYCARDRARSSGYFGGIYYYYYGMDVWGQGTTVTVSS
VL: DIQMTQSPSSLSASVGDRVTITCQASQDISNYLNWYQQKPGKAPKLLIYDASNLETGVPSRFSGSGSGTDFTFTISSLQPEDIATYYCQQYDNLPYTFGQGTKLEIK
notes: also called DH576 UCA; UCA of DH576; source: recombinantly expressed
As to B2, in assay [2], the binding result is “binds”.
